Experiment [1] addresses mouse IgG Fc (mouse). As to the kind of experiment: QCM; pH 7.4.
Experiment [2] has as its target human IgG (human). As to the kind of experiment: QCM; pH 7.4.
For experiment [3], the target named is mouse IgG Fab (mouse). Kind of experiment: QCM; pH 7.4.
For experiment [4], the target named is mouse IgG (mouse). Kind of experiment: QCM; pH 7.4.
The target of experiment [5] is human IgG Fab (human). Kind of experiment: QCM; pH 7.4.
For experiment [6], the target named is human IgG Fc (human). As to the kind of experiment: QCM; pH 7.4.
Experiment [7] addresses human IgG (human). Kind of experiment: QCM; pH 6.
Experiment [8] addresses mouse IgG Fab (mouse). As to the kind of experiment: QCM; pH 6.
Experiment [9] has as its target mouse IgG (mouse). As to the kind of experiment: QCM; pH 6.
Experiment [10] addresses human IgG Fab (human). Kind of experiment: QCM; pH 6.
The target in experiment [11] is human IgG Fc (human). As to the kind of experiment: QCM; pH 6.

For one molecule, Kd results are on record in patent publication US20140220017A1 (published 2014).

B1: SpGC3 (other)
chain: DAAQPAMAQVKLQQSGAELVRSGTSVKLSCTASGFNIKDSYMHWLRQGPEQGLEWIGWIDPENGDTEYAPKFQGKATFTTDTSSNTAYLQLSSLTSEDTAVYYCNEGTPTGPYYFDYWGQGTTVTVSSGGGGSDIQMTQSPSSLSASVGDRVTITCRASQDIRNYLNWYQQKPGKAPKLLIYYTSRLESGVPSRFSGSGSGTDYTLTISSLQPEDFATYYCQQGNTLPWTFGQGTKVEIKRGGGGSGGRASGGGGSEVQLVESGGGLVQPGGSLRLSCAASGYSFTGYTMNWVRQAPGKGLEWVALINPYKGVSTYNQKFKDRFTISVDKSKNTAYLQMNSLRAEDTAVYYCARSGYYGDSDWYFDVWGQGTLVTVSSGGGGSDIELTQSPAIMSASPGEKVTITCSASSSVSYMHWFQQKPGTSPKLWIYSTSNLASGVPARFSGSGSGTSYSLTISRMEAEDAATYYCQQRSSYPLTFGAGTKLELKRAAAGGSGGTTYKLVINGKTLKGETTTKAVDAETAEKAFKQYANDNGVDGVWTYDDATKTFTVTEGGSHHHHHH
Broadly, the Kd is a measure of binding affinity in units of concentration. Read a high Kd as lower affinity. For B1, the dissociation constant Kd in experiment [1] is 24 nM; in experiment [2] it was 6 nM; in experiment [3], 190 nM; in experiment [4] it was 58 nM; in experiment [5] it was 190 nM; in [6], 10 nM. The equilibrium dissociation constant (Kd) in [7] was 5 nM; in [8] it was 190 nM; in experiment [9] it was 46 nM; in [10] it was 150 nM; in experiment [11], 3.6 nM.
